Results: patent US20250043019A1 (Janssen / Centocor, published 2025)

Tests used:
Experiment in all cases: cell-based or functional assay
[1] = molecular target: T1, human CD79b and CD20 co-expressed on the surface of B-lymphoma cell lines or primary B cells (human, UniProt P11836 1-297)
T1 sequence 1: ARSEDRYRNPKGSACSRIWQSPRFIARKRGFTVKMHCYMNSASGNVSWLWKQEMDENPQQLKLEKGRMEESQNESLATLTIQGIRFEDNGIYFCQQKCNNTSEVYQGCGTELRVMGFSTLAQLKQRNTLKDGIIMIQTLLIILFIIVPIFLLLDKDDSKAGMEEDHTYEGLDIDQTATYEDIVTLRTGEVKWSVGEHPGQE
T1 sequence 2: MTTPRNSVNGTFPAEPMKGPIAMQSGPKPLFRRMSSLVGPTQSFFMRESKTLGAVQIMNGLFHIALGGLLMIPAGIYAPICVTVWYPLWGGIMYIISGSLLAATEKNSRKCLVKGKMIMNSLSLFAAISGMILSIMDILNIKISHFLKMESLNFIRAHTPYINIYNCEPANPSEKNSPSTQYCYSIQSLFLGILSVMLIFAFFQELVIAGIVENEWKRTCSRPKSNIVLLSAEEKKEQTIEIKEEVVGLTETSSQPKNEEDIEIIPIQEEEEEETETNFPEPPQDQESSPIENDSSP

[2] = molecular target: T1, human CD79b and CD20 co-expressed on …; remark: listed apart in the source
[3] = molecular target: T2, human CD79b on the cell surface (human, UniProt P40259 29-229)
T2 sequence: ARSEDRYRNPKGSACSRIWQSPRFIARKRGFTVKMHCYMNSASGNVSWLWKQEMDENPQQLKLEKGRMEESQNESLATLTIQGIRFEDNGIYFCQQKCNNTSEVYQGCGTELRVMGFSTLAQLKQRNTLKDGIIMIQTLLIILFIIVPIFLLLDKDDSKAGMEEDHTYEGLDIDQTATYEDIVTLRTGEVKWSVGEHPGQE

[4] = molecular target: T2, human CD79b on the cell surface; remark: listed apart in the source

B1: C923B95 CD79bxCD20xCD3 trispecific antibody (other)
heavy: QVQLQESGPGLVKPSQTLSLTCTVSGVSISNYYWSWIRQPPGKGLEWIGRISPSGRTNYNPSLKSRVTMSLDASKNQFSLKLSSVTAADTAVYYCARGEYSGTYSYSFDIWGQGTMVTVSSASTKGPSVFPLAPSSKSTSGGTAALGCLVKDYFPEPVTVSWNSGALTSGVHTFPAVLQSSGLYSLSSVVTVPSSSLGTQTYICNVNHKPSNTKVDKKVEPKSCDKTHTCPPCPAPEAAGGPSVFLFPPKPKDTLMISRTPEVTCVVVSVSHEDPEVKFNWYVDGVEVHNAKTKPREEQYNSTYRVVSVLTVLHQDWLNGKEYKCKVSNKALPAPIEKTISKAKGQPREPQVYTLPPSREEMTKNQVSLSCAVKGFYPSDIAVEWESNGQPENNYKTTPPVLDSDGSFFLVSKLTVDKSRWQQGNVFSCSVMHEALHNRFTQKSLSLSPGK
light: DIQMTQSPSSLSASVGDRVTITCRSSQSLFDSDDGNTYLDWFQQKPGQSPKLLIQTLSYRASGVPSRFSGSGSGTDFTLTISSLQPEDFATYYCMQRMEFPLTFGGGTKVEIKRTVAAPSVFIFPPSDEQLKSGTASVVCLLNNFYPREAKVQWKVDNALQSGNSQESVTEQDSKDSTYSLSSTLTLSKADYEKHKVYACEVTHQGLSSPVTKSFNRGEC
chain: EIVLTQSPATLSASPGERVTLSCSASSSVSYMNWYQQKPGQAPRRWIYDSSKLASGVPARFSGSGSGRDYTLTISSLEPEDFAVYYCQQWSRNPPTFGGGTKVEIKGGSEGKSSGSGSESKSTGGSQVQLVQSGAEVKKPGSSVKVSCKASGYTFTRSTMHWVRQAPGQGLEWMGYINPSSAYTNYAQKFQGRVTLTADKSTSTAYMELSSLRSEDTAVYYCASPQVHYDYGGFPYWGQGTLVTVSSEPKSSDKTHTCPPCPAPEAAGGPSVFLFPPKPKDTLMISRTPEVTCVVVSVSHEDPEVKFNWYVDGVEVHNAKTKPREEQYNSTYRVVSVLTVLHQDWLNGKEYKCKVSNKALPAPIEKTISKAKGQPREPQVYTLPPSREEMTKNQVSLWCLVKGFYPSDIAVEWESNGQPENNYKTTPPVLDSDGSFFLYSKLTVDKSRWQQGNVFSCSVMHEALHNHYTQKSLSLSPGKGGSEGKSSGSGSESKSTGGSAIQLTQSPSSLSASVGDRVTITCRASSSVSYIHWFQQKPGKAPKPLIYATSNLASGVPSRFSGSGSGTDFTLTISSLQPEDFATYYCQQWTSNPPTFGQGTKLEIKGGSEGKSSGSGSESKSTGGSQVQLVQSGAEVKKPGSSVKVSCKASGYTFTSYNMHWVRQAPGQGLEWMGAIYPGNGDTSYAQKFQGRVTITADKSTSTAYMELSSLRSEDTAVYYCARSTYYGGDWYFNVWGQGTLVTVSS
IC50, T-cell killing of HBL-1 (Incucyte) [1]: 4.89 nM | IC50, T-cell killing of OCI-Ly10 (Incucyte) [2]: 14.8 nM

B2: 79C3B650 CD79bxCD3 bispecific antibody (bispecific antibody, human IgG1, kappa, L234A L235A)
heavy: QVQLQESGPGLVKPSQTLSLTCTVSGVSISNYYWSWIRQPPGKGLEWIGRISPSGRTNYNPSLKSRVTMSLDASKNQFSLKLSSVTAADTAVYYCARGEYSGTYSYSFDIWGQGTMVTVSSASTKGPSVFPLAPSSKSTSGGTAALGCLVKDYFPEPVTVSWNSGALTSGVHTFPAVLQSSGLYSLSSVVTVPSSSLGTQTYICNVNHKPSNTKVDKKVEPKSCDKTHTCPPCPAPEAAGGPSVFLFPPKPKDTLMISRTPEVTCVVVSVSHEDPEVKFNWYVDGVEVHNAKTKPREEQYNSTYRVVSVLTVLHQDWLNGKEYKCKVSNKALPAPIEKTISKAKGQPREPQVYTLPPSREEMTKNQVSLSCAVKGFYPSDIAVEWESNGQPENNYKTTPPVLDSDGSFFLVSKLTVDKSRWQQGNVFSCSVMHEALHNRFTQKSLSLSPGK
light: DIQMTQSPSSLSASVGDRVTITCRSSQSLFDSDDGNTYLDWFQQKPGQSPKLLIQTLSYRASGVPSRFSGSGSGTDFTLTISSLQPEDFATYYCMQRMEFPLTFGGGTKVEIKRTVAAPSVFIFPPSDEQLKSGTASVVCLLNNFYPREAKVQWKVDNALQSGNSQESVTEQDSKDSTYSLSSTLTLSKADYEKHKVYACEVTHQGLSSPVTKSFNRGEC
chain: EIVLTQSPATLSASPGERVTLSCSASSSVSYMNWYQQKPGQAPRRWIYDSSKLASGVPARFSGSGSGRDYTLTISSLEPEDFAVYYCQQWSRNPPTFGGGTKVEIKGGSEGKSSGSGSESKSTGGSQVQLVQSGAEVKKPGSSVKVSCKASGYTFTRSTMHWVRQAPGQGLEWMGYINPSSAYTNYAQKFQGRVTLTADKSTSTAYMELSSLRSEDTAVYYCASPQVHYDYGGFPYWGQGTLVTVSSEPKSSDKTHTCPPCPAPEAAGGPSVFLFPPKPKDTLMISRTPEVTCVVVSVSHEDPEVKFNWYVDGVEVHNAKTKPREEQYNSTYRVVSVLTVLHQDWLNGKEYKCKVSNKALPAPIEKTISKAKGQPREPQVYTLPPSREEMTKNQVSLWCLVKGFYPSDIAVEWESNGQPENNYKTTPPVLDSDGSFFLYSKLTVDKSRWQQGNVFSCSVMHEALHNHYTQKSLSLSPGK
IC50, T-cell killing of HBL-1 (Incucyte) [3]: 43.3 nM | IC50, T-cell killing of OCI-Ly10 (Incucyte) [4]: 7 nM

B3: C923B73 CD79bxCD20xCD3 trispecific antibody (other)
heavy: QVQLQQSGPGLVKPSQTLSLTCAISGDSVSSNSATWNWIRQSPSRGLEWLGRTYYRSKWYNDYTVSVKSRITINPDTSKNQFSLQLNSVTPEDTAVYYCTRVDIAFDYWGQGTLVTVSSASTKGPSVFPLAPSSKSTSGGTAALGCLVKDYFPEPVTVSWNSGALTSGVHTFPAVLQSSGLYSLSSVVTVPSSSLGTQTYICNVNHKPSNTKVDKKVEPKSCDKTHTCPPCPAPEAAGGPSVFLFPPKPKDTLMISRTPEVTCVVVSVSHEDPEVKFNWYVDGVEVHNAKTKPREEQYNSTYRVVSVLTVLHQDWLNGKEYKCKVSNKALPAPIEKTISKAKGQPREPQVYTLPPSREEMTKNQVSLSCAVKGFYPSDIAVEWESNGQPENNYKTTPPVLDSDGSFFLVSKLTVDKSRWQQGNVFSCSVMHEALHNRFTQKSLSLSPGK
light: QTVVTQPPSVSEAPRQRVTISCSGSSSNIGNHGVNWYQQLPGKAPKLLIYNDDLLPSGVSDRFSGSTSGTSGSLAISGLQSEDEADYYCAAWDDSLNGVVFGGGTKLTVLGQPKAAPSVTLFPPSSEELQANKATLVCLISDFYPGAVTVAWKADSSPVKAGVETTTPSKQSNNKYAASSYLSLTPEQWKSHRSYSCQVTHEGSTVEKTVAPTECS
chain: EIVLTQSPATLSASPGERVTLSCSASSSVSYMNWYQQKPGQAPRRWIYDSSKLASGVPARFSGSGSGRDYTLTISSLEPEDFAVYYCQQWSRNPPTFGGGTKVEIKGGSEGKSSGSGSESKSTGGSQVQLVQSGAEVKKPGSSVKVSCKASGYTFTRSTMHWVRQAPGQGLEWMGYINPSSAYTNYAQKFQGRVTLTADKSTSTAYMELSSLRSEDTAVYYCASPQVHYDYGGFPYWGQGTLVTVSSEPKSSDKTHTCPPCPAPEAAGGPSVFLFPPKPKDTLMISRTPEVTCVVVSVSHEDPEVKFNWYVDGVEVHNAKTKPREEQYNSTYRVVSVLTVLHQDWLNGKEYKCKVSNKALPAPIEKTISKAKGQPREPQVYTLPPSREEMTKNQVSLWCLVKGFYPSDIAVEWESNGQPENNYKTTPPVLDSDGSFFLYSKLTVDKSRWQQGNVFSCSVMHEALHNHYTQKSLSLSPGKGGSEGKSSGSGSESKSTGGSAIQLTQSPSSLSASVGDRVTITCRASSSVSYIHWFQQKPGKAPKPLIYATSNLASGVPSRFSGSGSGTDFTLTISSLQPEDFATYYCQQWTSNPPTFGQGTKLEIKGGSEGKSSGSGSESKSTGGSQVQLVQSGAEVKKPGSSVKVSCKASGYTFTSYNMHWVRQAPGQGLEWMGAIYPGNGDTSYAQKFQGRVTITADKSTSTAYMELSSLRSEDTAVYYCARSTYYGGDWYFNVWGQGTLVTVSS
IC50, T-cell killing of HBL-1 (Incucyte) [1]: 6.8 nM | IC50, T-cell killing of OCI-Ly10 (Incucyte) [2]: 132 nM

B4: C923B36 CD79bxCD20xCD3 trispecific antibody (other)
heavy: QVQLQESGPGLVKPSETLSLTCSVSGASISSFYWSWIRQPADEGLEWIGRISPSGKTNYIPSLKSRIIMSLDASKNQFSLRLNSVTAADTAMYYCARGEYSGTYSYSFDVWGQGTMVTVSSASTKGPSVFPLAPSSKSTSGGTAALGCLVKDYFPEPVTVSWNSGALTSGVHTFPAVLQSSGLYSLSSVVTVPSSSLGTQTYICNVNHKPSNTKVDKKVEPKSCDKTHTCPPCPAPEAAGGPSVFLFPPKPKDTLMISRTPEVTCVVVSVSHEDPEVKFNWYVDGVEVHNAKTKPREEQYNSTYRVVSVLTVLHQDWLNGKEYKCKVSNKALPAPIEKTISKAKGQPREPQVYTLPPSREEMTKNQVSLSCAVKGFYPSDIAVEWESNGQPENNYKTTPPVLDSDGSFFLVSKLTVDKSRWQQGNVFSCSVMHEALHNRFTQKSLSLSPGK
light: DIVMTQSPLSLSVTPGEPASISCRSSESLLDSEDGNTYLDWFLQKPGQSPQLLIYTLSYRASGVPDRFSGSGSDTDFTLHISSLEAEDVGLYYCMQRMEFPLTFGQGTKVEIKRTVAAPSVFIFPPSDEQLKSGTASVVCLLNNFYPREAKVQWKVDNALQSGNSQESVTEQDSKDSTYSLSSTLTLSKADYEKHKVYACEVTHQGLSSPVTKSFNRGEC
chain: EIVLTQSPATLSASPGERVTLSCSASSSVSYMNWYQQKPGQAPRRWIYDSSKLASGVPARFSGSGSGRDYTLTISSLEPEDFAVYYCQQWSRNPPTFGGGTKVEIKGGSEGKSSGSGSESKSTGGSQVQLVQSGAEVKKPGSSVKVSCKASGYTFTRSTMHWVRQAPGQGLEWMGYINPSSAYTNYAQKFQGRVTLTADKSTSTAYMELSSLRSEDTAVYYCASPQVHYDYGGFPYWGQGTLVTVSSEPKSSDKTHTCPPCPAPEAAGGPSVFLFPPKPKDTLMISRTPEVTCVVVSVSHEDPEVKFNWYVDGVEVHNAKTKPREEQYNSTYRVVSVLTVLHQDWLNGKEYKCKVSNKALPAPIEKTISKAKGQPREPQVYTLPPSREEMTKNQVSLWCLVKGFYPSDIAVEWESNGQPENNYKTTPPVLDSDGSFFLYSKLTVDKSRWQQGNVFSCSVMHEALHNHYTQKSLSLSPGKGGSEGKSSGSGSESKSTGGSAIQLTQSPSSLSASVGDRVTITCRASSSVSYIHWFQQKPGKAPKPLIYATSNLASGVPSRFSGSGSGTDFTLTISSLQPEDFATYYCQQWTSNPPTFGQGTKLEIKGGSEGKSSGSGSESKSTGGSQVQLVQSGAEVKKPGSSVKVSCKASGYTFTSYNMHWVRQAPGQGLEWMGAIYPGNGDTSYAQKFQGRVTITADKSTSTAYMELSSLRSEDTAVYYCARSTYYGGDWYFNVWGQGTLVTVSS
IC50, T-cell killing of HBL-1 (Incucyte) [1]: 31 nM | IC50, T-cell killing of OCI-Ly10 (Incucyte) [2]: 42 nM
